Target: T1, alpha fetoprotein (AFP) (human, UniProt P02771 19-609)
T1 sequence: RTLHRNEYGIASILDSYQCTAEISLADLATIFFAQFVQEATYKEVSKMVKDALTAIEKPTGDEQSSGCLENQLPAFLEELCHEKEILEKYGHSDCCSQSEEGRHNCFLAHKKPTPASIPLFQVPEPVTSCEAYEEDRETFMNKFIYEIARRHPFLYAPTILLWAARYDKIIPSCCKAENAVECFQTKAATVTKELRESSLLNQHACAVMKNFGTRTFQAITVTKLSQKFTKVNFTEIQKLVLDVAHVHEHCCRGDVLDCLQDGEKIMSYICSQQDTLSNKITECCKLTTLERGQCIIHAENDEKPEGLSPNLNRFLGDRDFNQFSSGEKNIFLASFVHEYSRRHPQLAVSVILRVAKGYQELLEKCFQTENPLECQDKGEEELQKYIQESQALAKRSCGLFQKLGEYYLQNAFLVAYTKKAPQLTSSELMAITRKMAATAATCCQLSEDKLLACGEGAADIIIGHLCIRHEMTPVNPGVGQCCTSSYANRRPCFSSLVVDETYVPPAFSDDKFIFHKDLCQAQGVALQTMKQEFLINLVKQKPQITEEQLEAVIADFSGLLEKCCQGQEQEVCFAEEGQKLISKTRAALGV
Assay: plasmon-regulated FRET / LSPR shift aptasensor (Au NR-QDs); 20 ng/mL AFP; LSPR redshift 1.2 nm, fluorescence decrease ~18%; sensor LOD 0.30 ng/mL (not a Kd); aptamer immobilized on Au NR-QDs via glutaraldehyde (room temperature, 2 h, water); AFP binding buffer, pH and temperature not given in the material
Conditions: protein: commercial

B1: AFP aptamer (ssDNA)
DNA: GTGACGCTCCTAACGCTGACTCAGGTGCAGTTCTCGACTCGGTCTTGATGTGGGTCCTGTCCGTCCGAACCAATC
modifications: 5'-NH2
- binding result: binds

— publication PMC7152990, “Plasmon-Emitter Hybrid Nanostructures of Gold Nanorod-Quantum Dots with Regulated Energy Transfer as a Universal Nano-Sensor for One-Step Biomarker Detection”
